The values that follow come from article PMC2937010.

For the assay, the target named is RMI1 OB2 domain (C-terminal OB fold of RMI1, residues 473-625) (human) (UniProt Q9H9A7). The assay can be described thus: SEC. In general terms: Size exclusion chromatography separates by hydrodynamic size, large species first.

In general, stoichiometry N refers to the number of molecules, sites or subunits per partner or assembly. The substance “RMI2 (RMI core complex, wild type) (natural protein)” gave a stoichiometry N of 1.
